Biological target: Recombinant human IL-18 (Peprotech 200-18) (human) (UniProt Q14116)
Experiment: cell-based or functional assay

Chain of Recombinant human IL-18 (Peprotech 200-18) (human) (Q14116 37-193 limits assumed): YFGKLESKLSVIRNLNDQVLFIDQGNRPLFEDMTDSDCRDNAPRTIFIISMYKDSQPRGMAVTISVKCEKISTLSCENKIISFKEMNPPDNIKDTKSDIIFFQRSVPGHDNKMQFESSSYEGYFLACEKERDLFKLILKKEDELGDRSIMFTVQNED
Chain of recombinant IL-18BP/Fc chimera (R&D Systems, 119-BP) (O95998 31-194, change not shown): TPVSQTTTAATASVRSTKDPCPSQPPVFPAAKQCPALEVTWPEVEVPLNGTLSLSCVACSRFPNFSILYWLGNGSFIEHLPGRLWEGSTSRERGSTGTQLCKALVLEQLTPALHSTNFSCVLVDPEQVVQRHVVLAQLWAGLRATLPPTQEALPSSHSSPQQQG

Substance “recombinant IL-18BP/Fc chimera (R&D Systems, 119-BP) (from UniProt O95998 31-194) (Fc fusion)” has an ED50, inhibition of INF-γ release by KG1 cells of 0.52 nM.

Reference: patent publication US20110014201A1
